Data set [1] deals with T1, FBF-2 RBD + CT (Caenorhabditis elegans, UniProt Q09312).
T1 construct: A cDNA fragment encoding C. elegans FBF-2 RBD + CT (residues 164-632) was cloned into the pSMT3 vector; His6-SUMO (N, cleaved yes); made in house; host or cells: E. coli BL21-CodonPlus (DE3)-RIL
T1 sequence (Q09312 whole entry, looked up): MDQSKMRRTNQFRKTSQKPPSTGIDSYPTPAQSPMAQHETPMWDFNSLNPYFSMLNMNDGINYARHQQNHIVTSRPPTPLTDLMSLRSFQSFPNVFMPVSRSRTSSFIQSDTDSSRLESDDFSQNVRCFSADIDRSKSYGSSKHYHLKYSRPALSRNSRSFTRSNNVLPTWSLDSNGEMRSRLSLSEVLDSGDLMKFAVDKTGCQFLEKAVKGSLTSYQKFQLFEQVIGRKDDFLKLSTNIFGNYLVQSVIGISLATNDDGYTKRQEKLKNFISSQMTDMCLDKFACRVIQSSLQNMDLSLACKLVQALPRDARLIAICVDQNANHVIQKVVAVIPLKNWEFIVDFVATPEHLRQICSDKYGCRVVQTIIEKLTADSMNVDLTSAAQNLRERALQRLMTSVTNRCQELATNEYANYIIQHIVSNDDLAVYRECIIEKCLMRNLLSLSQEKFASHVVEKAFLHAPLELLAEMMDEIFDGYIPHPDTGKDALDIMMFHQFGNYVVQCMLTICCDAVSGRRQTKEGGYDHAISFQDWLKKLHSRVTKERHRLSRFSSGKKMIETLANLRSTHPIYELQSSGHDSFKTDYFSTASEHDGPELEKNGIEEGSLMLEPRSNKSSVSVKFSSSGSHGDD
Description: ITC, peptide into FBF-2 RBD + CT, no RNA. The note with it: 20 °C, pH 7.4. It counts as binding, C. elegans.

The target of data set [2] is T2, FBF-2 RBD+CT Loop6A (Caenorhabditis elegans, UniProt Q09312, D594A/E592A/E597A/E599A/E604A/E605A).
T2 construct: A cDNA fragment encoding C. elegans FBF-2 RBD + CT (residues 164-632) was cloned into the pSMT3 vector; His6-SUMO (N, cleaved yes); made in house; host or cells: E. coli BL21-CodonPlus (DE3)-RIL (as for wild type)
Description: ITC, peptide into FBF-2 RBD + CT Loop6A, no RNA. Format: binding, C. elegans. To be noted: 20 °C, pH 7.4. As for the experimental part: Experiments were performed at 20 °C using a MicroCal PEAQ-ITC Automated (Malvern Instruments) with a 200-μL standard cell and a 40-μL titration syringe. FBF-2 and LST-1 variants were prepared in a buffer of 20 mM HEPES pH 7.4, 150 mM NaCl, and 0.5 mM TCEP by gel filtration. LST-1 (100–400 µM) was titrated from the syringe into the cell containing FBF-2 (10–30 µM) in 2 µl aliquots. Experiments were performed in duplicate due to the limitation of the amount of protein needed. Data were analyzed using the MicroCal PEAQ-ITC Analysis Software (version 1.40) provided by the manufacturer with the one-site model (Table S3).
Supplementary Table 3. Protein interaction affinities, stoichiometries, and thermodynamic parameters between FBF-2 CT/LST-1 variants and FBF-2 measured by ITC. Two technical replicates (n=2 independent experiments) were performed for each analysis with similar results, and the values are shown for each replicate. Source data are provided as a Source Data file. […]
RBD+CT LST-1 A none Not detected
RBD FBF-2 CT none Not detected
1 Reported previously 18.
For orientation: ITC needs no label: the signal is the heat of the interaction.

In data set [3] the target is T3, FBF-2 RBD+CT;LST-1 A peptide (Caenorhabditis elegans;Caenorhabditis …, UniProt Q09312;P91820 164-632;19-50, |).
T3 sequence 1: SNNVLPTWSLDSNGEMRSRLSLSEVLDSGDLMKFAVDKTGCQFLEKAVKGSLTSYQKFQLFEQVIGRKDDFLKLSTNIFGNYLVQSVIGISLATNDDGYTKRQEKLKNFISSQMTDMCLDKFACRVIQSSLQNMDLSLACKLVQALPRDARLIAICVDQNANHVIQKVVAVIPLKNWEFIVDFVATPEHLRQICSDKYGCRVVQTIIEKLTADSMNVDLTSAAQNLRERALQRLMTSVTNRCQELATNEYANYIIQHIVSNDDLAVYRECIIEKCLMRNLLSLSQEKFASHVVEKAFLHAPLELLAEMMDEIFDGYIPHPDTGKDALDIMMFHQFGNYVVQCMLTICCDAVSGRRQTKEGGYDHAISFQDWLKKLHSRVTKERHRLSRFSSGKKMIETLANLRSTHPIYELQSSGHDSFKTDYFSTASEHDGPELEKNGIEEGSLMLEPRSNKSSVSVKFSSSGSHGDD
T3 sequence 2: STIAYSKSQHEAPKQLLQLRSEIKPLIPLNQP
Description: EMSA; 150 uM LST-1 A; EMSA: FBF-2 in 20 mM HEPES pH 7.4, 150 mM NaCl, 0.5 mM TCEP mixed 1:1 with 5 nM final RNA in 10 mM HEPES pH 7.4, 0.01% Tween 20, 0.1 mg/ml BSA, 0.1 mg/ml yeast. To be noted: protein: recombinant;recombinant; tags: none (His6-SUMO removed with Ulp1);none (His6-SUMO removed with Ulp1); copies: 1;1; label: 3'-Cy5. (In general: A gel shift assay detects complexes by their altered migration in electrophoresis.)

What is called Kd is the free concentration of one partner at which half of the binding sites on the other are occupied at equilibrium, for simple one-to-one binding.

T2 sequence (Q09312 164-632 E592A/D594A/E597A/E599A/E604A/E605A): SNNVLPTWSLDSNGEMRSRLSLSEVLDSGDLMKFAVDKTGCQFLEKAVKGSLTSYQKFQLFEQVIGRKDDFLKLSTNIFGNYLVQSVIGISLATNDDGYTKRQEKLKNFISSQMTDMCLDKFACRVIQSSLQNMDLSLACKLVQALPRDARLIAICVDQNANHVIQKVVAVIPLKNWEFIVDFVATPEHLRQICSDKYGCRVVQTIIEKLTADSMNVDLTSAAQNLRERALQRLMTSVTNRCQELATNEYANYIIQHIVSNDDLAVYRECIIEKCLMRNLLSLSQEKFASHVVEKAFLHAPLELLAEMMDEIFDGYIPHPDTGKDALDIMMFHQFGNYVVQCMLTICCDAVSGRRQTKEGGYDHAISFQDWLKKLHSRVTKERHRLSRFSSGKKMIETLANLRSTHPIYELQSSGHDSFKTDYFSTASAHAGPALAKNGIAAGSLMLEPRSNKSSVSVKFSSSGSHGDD

For “LST-1 B: LST-1 B peptide, residues 67–98, expressed in E. coli (SSSPQQRSGLRSQKLHLTYIEKNKRVRAMIPQ; left off: His6-SUMO, N-terminal, cleaved)”, the “-T∆S” value stood at 2.08 kcal/mol in data set [1] (replicate 1), 2.27 kcal/mol in data set [1] (replicate 2), 5.07 kcal/mol in data set [2] (replicate 1) and 3.59 kcal/mol in data set [2] (replicate 2). For the same molecule, the “∆G” value was -7.62 kcal/mol in data set [1] (replicate 1), -7.36 kcal/mol in data set [1] (replicate 2), -8.01 kcal/mol in data set [2] (replicate 1) and -7.91 kcal/mol in data set [2] (replicate 2). In addition, the “∆H” value was -9.7 kcal/mol in data set [1] (replicate 1), -9.61 kcal/mol in data set [1] (replicate 2), -13.1 kcal/mol in data set [2] (replicate 1) and -11.5 kcal/mol in data set [2] (replicate 2).

B1: gld-1 FBEa RNA (EMSA) (ssRNA)
RNA: AUCAUGUGCCAUAC
Consider B1, for which the Kd in data set [3] was 114 ± 10 nM.

Values taken from PMC10641069, “Intra- and inter-molecular regulation by intrinsically-disordered regions governs PUF protein RNA binding” (Nature Communications, 2023).
